In patent publication US20240200091A1, “USE OF PROTOPORPHYRINOGEN OXIDASE” (BEIJING DABEINONG BIOTECHNOLOGY CO., LTD., priority 2021, published 2024):

Tests used:
Type in all cases: in vivo
Settings in all cases: 7 DAT, number of plants of 24 per genotype, grades
[1] = system: Arabidopsis thaliana T1 plants; experiment: sulfentrazone tolerance of transgenic Arabidopsis thaliana T1 plants (spray, grade of pesticide damage)
Summary of the method: (§1)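 T1 lines expressing individual PPO variants, control-vector and wild-type plants (24 per genotype) were sprayed 18 days after sowing: oxyfluorfen 180/720, saflufenacil 25/100, flumioxazin 60/240, sulfentrazone 450/900 g ai/ha, or water. Damage graded 0–3 from injured leaf area at 7 DAT.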

[2] = system: Arabidopsis thaliana T1 plants; experiment: saflufenacil tolerance of transgenic Arabidopsis thaliana T1 plants (spray, grade of pesticide damage)
Summary of the method: as §1

[3] = system: Arabidopsis thaliana T1 plants; experiment: oxyfluorfen tolerance of transgenic Arabidopsis thaliana T1 plants (spray, grade of pesticide damage)
Summary of the method: as §1

[4] = system: Arabidopsis thaliana T1 plants; experiment: flumioxazin tolerance of transgenic Arabidopsis thaliana T1 plants (spray, grade of pesticide damage)
Summary of the method: as §1

Row | Molecule | The grade of pesticide: grade 0 ([1]; sulfentrazone 450 g ai/ha (1×)) | The grade of pesticide: grade 1 ([1]; sulfentrazone 450 g ai/ha (1×)) | The grade of pesticide: grade 2 ([1]; sulfentrazone 450 g ai/ha (1×)) | The grade of pesticide: grade 3 ([1]; sulfentrazone 450 g ai/ha (1×)) | The grade of pesticide: grade 0 ([1]; sulfentrazone 900 g ai/ha (2×)) | The grade of pesticide: grade 1 ([1]; sulfentrazone 900 g ai/ha (2×)) | The grade of pesticide: grade 2 ([1]; sulfentrazone 900 g ai/ha (2×)) | The grade of pesticide: grade 3 ([1]; sulfentrazone 900 g ai/ha (2×)) | The grade of pesticide damage/plant: grade 0 ([2]; saflufenacil 25 g ai/ha (1×)) [plant] | The grade of pesticide damage/plant: grade 1 ([2]; saflufenacil 25 g ai/ha (1×)) [plant] | The grade of pesticide damage/plant: grade 2 ([2]; saflufenacil 25 g ai/ha (1×)) [plant] | The grade of pesticide damage/plant: grade 3 ([2]; saflufenacil 25 g ai/ha (1×)) [plant] | The grade of pesticide damage/plant: grade 0 ([2]; saflufenacil 100 g ai/ha (4×)) [plant] | The grade of pesticide damage/plant: grade 1 ([2]; saflufenacil 100 g ai/ha (4×)) [plant] | The grade of pesticide damage/plant: grade 2 ([2]; saflufenacil 100 g ai/ha (4×)) [plant] | The grade of pesticide damage/plant: grade 3 ([2]; saflufenacil 100 g ai/ha (4×)) [plant] | The grade of pesticide damage/plant: grade 0 ([3]; oxyfluorfen 180 g ai/ha (1×)) [plant] | The grade of pesticide damage/plant: grade 1 ([3]; oxyfluorfen 180 g ai/ha (1×)) [plant] | The grade of pesticide damage/plant: grade 2 ([3]; oxyfluorfen 180 g ai/ha (1×)) [plant] | The grade of pesticide damage/plant: grade 3 ([3]; oxyfluorfen 180 g ai/ha (1×)) [plant] | other results
1 | PPO5A: nucleotide sequence encoding microbial protoporphyrinogen oxidase PPO5 (SEQ ID NO:5), Arabidopsis thaliana/soybean common codon usage bias (nucleic acid, PPO5A Nucleotide Sequence) DNA: ATGAAGACTCTTATCCTCTACTTCACAACAGACGGCCAAACGAAAAAGATTGCCGAGAGACTGGCTGATGTGATTACTCATGAAGTGGAGCTAATCTCCTTGAAAGATCAAGCTGTTGATTTTGCTCAGAAGATGGCTAATGTTGACCAAGTAGTCATTGGAGCGAGTATAAGGTATGGTCACTTCAGCCCTCTTGTTTATCAGTTTATTGAACAACATTATGCAATGTTGAATGAGAAGAAAACCGCTTTTTATGGAGTGAATCTCACAGCAAGGAAAGCAAATCGAAACACCCCAACCACAAATACTTACATCCGGAACTTCTTAGCAAAGGTGAAATGGCAACCTAACTATGTTGAGGTCATAGCTGGTGCCTTGTTTTACCCGCGTTACAGATTCATTGATAGAATGATGATTCGCTTCATCATGAAAGTAACGAAAGGAGAAACTGATGTTTCAAAAGAATATGAATACACAAACTGGCAGCAAGTTGAAGAGTTTGGGAAGAAGCTTTCTGATCAGTTAATATGA | 24 | 0 | 0 | 0 | 20 | 4 | 0 | 0 | 24 | 0 | 0 | 0 | 0 | 24 | 0 | 0 | 24 | 0 | 0 | 0 | The grade of pesticide damage/plant: grade 0 ([3]; oxyfluorfen 720 g ai/ha (4×)): 22 plant; The grade of pesticide damage/plant: grade 1 ([3]; oxyfluorfen 720 g ai/ha (4×)): 2 plant; The grade of pesticide damage/plant: grade 2 ([3]; oxyfluorfen 720 g ai/ha (4×)): 0 plant; The grade of pesticide damage/plant: grade 3 ([3]; oxyfluorfen 720 g ai/ha (4×)): 0 plant; The grade of pesticide damage/plant: grade 0 ([4]; flumioxazin 60 g ai/ha (1×)): 24 plant; The grade of pesticide damage/plant: grade 1 ([4]; flumioxazin 60 g ai/ha (1×)): 0 plant; The grade of pesticide damage/plant: grade 2 ([4]; flumioxazin 60 g ai/ha (1×)): 0 plant; The grade of pesticide damage/plant: grade 3 ([4]; flumioxazin 60 g ai/ha (1×)): 0 plant; The grade of pesticide damage/plant: grade 0 ([4]; flumioxazin 240 g ai/ha (4×)): 21 plant; The grade of pesticide damage/plant: grade 1 ([4]; flumioxazin 240 g ai/ha (4×)): 3 plant; The grade of pesticide damage/plant: grade 2 ([4]; flumioxazin 240 g ai/ha (4×)): 0 plant; The grade of pesticide damage/plant: grade 3 ([4]; flumioxazin 240 g ai/ha (4×)): 0 plant
2 | PPO9A: nucleotide sequence encoding microbial protoporphyrinogen oxidase PPO9 (SEQ ID NO:9), Arabidopsis thaliana/soybean common codon usage bias (nucleic acid, The nucleotide sequence of PPO9A) DNA: ATGGAGAAAGTTCTTCTACTGCATTCTTCCTCTGATGGTCAGACAGTGAAGATTCTCAGACATATTGAAACAACATTAGGTGGTGATTACCAATGTGAGCTTGTGGATTTGAATACTCTGCCGACTGTTGATTTTGCTGATTATGACCGTGTCTTAGTAGGCGCGAGTATACGCTATGGGCACCTCAACAAGAAACTCTACCAGTTTATAGAGAGATACAGAGATGAATTGGACCAAAACAAAGTAGGTTTCTTCTGCGTGAATCTTACTGCAAGGAAAGAAGGAAAGAATACGCCTGAGACTAGCGTTTACATGAAGACCTTTTTGAAGAAGTCGCCATGGTGTCCAAAATTGCAAGAAGTTTTCGCTGGAGCTCTTCGTTATCCTCGGTATGGATGGTTTGATAGGGTCATGATTCAGTTCATCATGAGAATCACGGGGGGAGAAACCGACACATCAAAAGAGGTTGAGTATACTGATTGGCAAAAGGTTGAAGCTTTTGCAGCCCGATTCAAACATTACTGA | 24 | 0 | 0 | 0 | 18 | 6 | 0 | 0 | 24 | 0 | 0 | 0 | 0 | 24 | 0 | 0 | 24 | 0 | 0 | 0 | The grade of pesticide damage/plant: grade 0 ([3]; oxyfluorfen 720 g ai/ha (4×)): 20 plant; The grade of pesticide damage/plant: grade 1 ([3]; oxyfluorfen 720 g ai/ha (4×)): 4 plant; The grade of pesticide damage/plant: grade 2 ([3]; oxyfluorfen 720 g ai/ha (4×)): 0 plant; The grade of pesticide damage/plant: grade 3 ([3]; oxyfluorfen 720 g ai/ha (4×)): 0 plant; The grade of pesticide damage/plant: grade 0 ([4]; flumioxazin 60 g ai/ha (1×)): 24 plant; The grade of pesticide damage/plant: grade 1 ([4]; flumioxazin 60 g ai/ha (1×)): 0 plant; The grade of pesticide damage/plant: grade 2 ([4]; flumioxazin 60 g ai/ha (1×)): 0 plant; The grade of pesticide damage/plant: grade 3 ([4]; flumioxazin 60 g ai/ha (1×)): 0 plant; The grade of pesticide damage/plant: grade 0 ([4]; flumioxazin 240 g ai/ha (4×)): 24 plant; The grade of pesticide damage/plant: grade 1 ([4]; flumioxazin 240 g ai/ha (4×)): 0 plant; The grade of pesticide damage/plant: grade 2 ([4]; flumioxazin 240 g ai/ha (4×)): 0 plant; The grade of pesticide damage/plant: grade 3 ([4]; flumioxazin 240 g ai/ha (4×)): 0 plant
3 | PPO7A: nucleotide sequence encoding microbial protoporphyrinogen oxidase PPO7 (SEQ ID NO:7), Arabidopsis thaliana/soybean common codon usage bias (nucleic acid, The nucleotide sequence of PPO7A) DNA: ATGGATAAGATATTAGTCCTGTACAGTAGTCAAGATGGGCAGACGAGGAAGATTGTTGATGCAATGCTTGAAGAAATCTCTGGTTGTGATGTTGTGATTCAAGACTTGCACACACTACCGAAATGCAACCTATCCAAATATGCGAAAGTGTTGATTGGTGCTTCCATAAGGTATGGAAACTTCCATCCTTCTCTTCTCAGCTTCATCAATGCTCATCATGAACAACTTGAGGTTGCTAATGCGGCCTTCTTCTGTGTAAATCTCACTGCCCGAAAACCTGAGAAGCAAACTCCCCAGACAAACGCTTACATGAAGAAGTTTTTACGCTTATCACCATGGAAACCAAAGACCCTTGGAGTGTTTGCAGGAGCTTTGCAATATTCAAGATACAATTGGTGGCAAACCCGTATCATTCAGCTGATAATGAAAATGACTGGTGGCTCAACAGACACATCTCAGGATTTGGAGTTTACTGATTGGGTTAAAGTCCGGTCGTTTGCAAGAGAATTTTGGAGCAAGAGATGA | 24 | 0 | 0 | 0 | 22 | 2 | 0 | 0 | 24 | 0 | 0 | 0 | 4 | 20 | 0 | 0 | 24 | 0 | 0 | 0 | The grade of pesticide damage/plant: grade 0 ([3]; oxyfluorfen 720 g ai/ha (4×)): 20 plant; The grade of pesticide damage/plant: grade 1 ([3]; oxyfluorfen 720 g ai/ha (4×)): 4 plant; The grade of pesticide damage/plant: grade 2 ([3]; oxyfluorfen 720 g ai/ha (4×)): 0 plant; The grade of pesticide damage/plant: grade 3 ([3]; oxyfluorfen 720 g ai/ha (4×)): 0 plant; The grade of pesticide damage/plant: grade 0 ([4]; flumioxazin 60 g ai/ha (1×)): 24 plant; The grade of pesticide damage/plant: grade 1 ([4]; flumioxazin 60 g ai/ha (1×)): 0 plant; The grade of pesticide damage/plant: grade 2 ([4]; flumioxazin 60 g ai/ha (1×)): 0 plant; The grade of pesticide damage/plant: grade 3 ([4]; flumioxazin 60 g ai/ha (1×)): 0 plant; The grade of pesticide damage/plant: grade 0 ([4]; flumioxazin 240 g ai/ha (4×)): 24 plant; The grade of pesticide damage/plant: grade 1 ([4]; flumioxazin 240 g ai/ha (4×)): 0 plant; The grade of pesticide damage/plant: grade 2 ([4]; flumioxazin 240 g ai/ha (4×)): 0 plant; The grade of pesticide damage/plant: grade 3 ([4]; flumioxazin 240 g ai/ha (4×)): 0 plant
